Here are results for 1 substance from US6383761B1, “Methods and compositions for identifying modulators of G-protein-coupled receptors” (The Regents of the University of California, priority 1997, dated 2002).

The target of one series is T1, D2 dopamine receptor (Homo sapiens, UniProt P14416).
T1 construct: expressed in transfected cells; host or cells: COS-7
Format: cell-based.

For another series, the target named is T2, m2 muscarinic receptor (Homo sapiens, UniProt P08172).
T2 sequence (P08172 1-466): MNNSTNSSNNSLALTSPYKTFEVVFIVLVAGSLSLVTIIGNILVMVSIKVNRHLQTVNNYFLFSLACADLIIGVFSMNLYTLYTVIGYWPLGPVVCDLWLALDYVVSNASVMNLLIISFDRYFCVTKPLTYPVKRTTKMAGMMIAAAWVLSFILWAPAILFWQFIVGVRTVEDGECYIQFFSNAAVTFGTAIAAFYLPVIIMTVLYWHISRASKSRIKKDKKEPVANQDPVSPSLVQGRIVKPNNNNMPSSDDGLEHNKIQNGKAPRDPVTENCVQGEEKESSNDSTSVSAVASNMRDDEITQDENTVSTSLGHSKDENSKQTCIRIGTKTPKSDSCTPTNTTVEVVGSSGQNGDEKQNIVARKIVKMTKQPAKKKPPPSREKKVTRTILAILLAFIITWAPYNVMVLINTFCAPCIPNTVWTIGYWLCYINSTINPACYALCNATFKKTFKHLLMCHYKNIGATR
The experiment in a line: PI hydrolysis assay (IP1 accumulation) in COS-7 cells co-transfected with receptor and Gαq construct. Format: cell-based. The settings on record: carbachol 100 μM, pertussis toxin pretreatment 500 ng/ml.

T1 sequence (P14416 whole entry): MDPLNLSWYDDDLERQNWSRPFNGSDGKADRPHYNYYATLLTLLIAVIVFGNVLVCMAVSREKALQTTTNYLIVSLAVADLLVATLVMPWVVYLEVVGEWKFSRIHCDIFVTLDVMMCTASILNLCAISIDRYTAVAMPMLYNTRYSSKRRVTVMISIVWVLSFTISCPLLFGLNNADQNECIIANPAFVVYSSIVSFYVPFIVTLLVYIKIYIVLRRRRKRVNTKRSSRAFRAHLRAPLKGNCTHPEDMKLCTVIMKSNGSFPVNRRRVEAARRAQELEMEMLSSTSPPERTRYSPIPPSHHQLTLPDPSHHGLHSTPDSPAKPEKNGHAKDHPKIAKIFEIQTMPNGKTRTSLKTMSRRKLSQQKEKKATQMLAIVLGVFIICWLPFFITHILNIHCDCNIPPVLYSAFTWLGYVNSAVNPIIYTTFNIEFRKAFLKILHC

Take pertussis toxin: the “block of agonist-induced PI response” value with D2 dopamine receptor and with m2 muscarinic receptor (m2 receptor co-expressed with −6q) was “partly blocked” each time. Further, the “block of agonist-induced increase in inositol phosphate production” value at D2 dopamine receptor and on m2 muscarinic receptor (m2 receptor with vector DNA or WTq) was “almost completely blocked” throughout.
